From US9738880B2, “Lysosomal protein targeting sequence and therapeutic applications of same” (Children's Hospital Medical Center, priority 2013, dated 2017)
Entries after “also recorded” stand apart in the source; their conditions may differ.

Assays:
[1] = molecular target: T1, ldLIMP2 (Homo sapiens, UniProt Q14108); assay: Fluorescence polarization binding and competition of DDQRLLL GCase peptides to ldLIMP2; conditions: ldLIMP2 fixed at 1000 nM; FIG. 13
T1 construct: Purified luminal domain LIMP-2 (1d-LIMP2) was custom made (Sino Biological Inc., PRC.); purchased Sino Biological Inc
T1 sequence (Q14108 28-433 limits assumed): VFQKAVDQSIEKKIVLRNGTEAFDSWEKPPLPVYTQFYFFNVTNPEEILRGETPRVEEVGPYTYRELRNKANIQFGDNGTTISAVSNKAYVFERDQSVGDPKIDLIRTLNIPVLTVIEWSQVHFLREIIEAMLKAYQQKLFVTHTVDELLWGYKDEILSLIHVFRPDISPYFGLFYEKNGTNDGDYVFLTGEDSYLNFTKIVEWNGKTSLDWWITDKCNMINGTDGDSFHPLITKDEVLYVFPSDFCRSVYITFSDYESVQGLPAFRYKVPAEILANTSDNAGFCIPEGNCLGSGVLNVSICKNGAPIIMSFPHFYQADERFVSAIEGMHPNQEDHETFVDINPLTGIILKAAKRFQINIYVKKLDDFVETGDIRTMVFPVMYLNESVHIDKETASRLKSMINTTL
Experimental: FIG. 13A-FIG. 13B: Competition and binding of fluorescent labeled or unlabeled DDQRLLL (SEQ ID NO 14) GCase peptides to ldLIMP2. FIG. 13A depicts the δmP of the WT (DDQRLLL (SEQ ID NO 14)) or variously alanine substituted labeled peptides were plotted against the corresponding unlabeled peptide competitors. Note that the fixed ldLIMP2 concentration was 1000 nM or 20 times that used in similar studies (FIG. 7A-FIG. 7C). For all peptides the δmP were near or at background levels. FIG. 13B depicts the binding δmP for the various peptides as in FIG. 13A. The signals were near background levels for all peptides using concentrations 5 to 10 times that for DSPIIV (SEQ ID NO 15) and with a 20 times greater LIMP2 fixed concentration.
Fluorescence Polarization: The DSPIIV (SEQ ID NO 15) and its mutants, and DDQRLLL (SEQ ID NO 14) peptides (FITC labeled or non-labeled) were synthesized (American Peptide Co., Vista, Calif.). Lyophilized peptides were solubilized in acetonitrile and then were diluted at least 10,000-fold into the reactions for fluorescence polarization assessments. The reactions were done at least in duplicate at various peptide and LIMP-2 concentrations (SpectraMax M5, Molecular Device). Fluorescence polarization data were collected and analyzed with SoftMax Pro 5.0 software. Reaction mixtures contained 100 mM phosphate, pH 6.8 and 1 mM DTT.

[2] = molecular target: T2, GCase binding to ldLIMP2 (Homo sapiens, UniProt Q14108); assay: Competitive immunoprecipitation of GCase with ldLIMP2 at increasing molar ratios of peptide
T2 construct: Purified luminal domain LIMP-2 (1d-LIMP2) was custom made (Sino Biological Inc., PRC.); purchased Sino Biological Inc
T2 sequence (Q14108 28-433 limits assumed): T1 sequence (Q14108 28-433 limits assumed)
Experimental: FIG. 8A-FIG. 8C: Immunoprecipitation of GCase in the presence of ldLIMP2 and increasing molar ratios of the WT (DSPIIV (SEQ ID NO 15)) peptide. FIG. 8A depicts immunoprecipitation of GCase and LIMP-2. Purified WT GCase was preincubated with purified ldLIMP2 in a molar ratio of 1:1. Then, unlabeled DSPIIV (SEQ ID NO 15) was added in varying molar excesses (0 to 5×, top of figure) over GCase, incubated, and then immunoprecipitated with Protein G-coupled anti-LIMP-2 antibody beads. The beads were then eluted and the eluants were analyzed for GCase and ldLIMP2 on Western blots using the specified antibodies. […] In the bottom panel, ldLIMP2 recovery was the same at all peptide ratios. FIG. 8B depicts immunoprecipitation of GCase and LIMP-2. Purified ldLIMP2 was preincubated with unlabeled WT peptide at various molar ratios. Then, purified WT GCase was added in a 1:1 molar ratio with ldLIMP2, incubated, and then immunoprecipitated and processed as in FIG. 8A. […] FIG. 8C depicts immunoprecipitation of GCase and LIMP-2. Purified WT GCase was preincubated with purified ldLIMP2 in a molar ratio of 1:1. Then peptide DDQRLLL, a potential candidate for the GCase ligand for ldLIMP2, was added in varying molar excesses over WT GCase, incubated, and then immunoprecipitated and processed as in FIG. 8A. […] DDQRLLL (SEQ ID NO 14) is a dileucine peptide outside of the localized targeting region of DSPIIVDITKD (SEQ ID NO 3) (see FIG. 3).
FIG. 14A-FIG. 14B: Immunoprecipitation of GCase in the presence of ldLIMP2 and increasing molar ratios of the WT (DDQRLLL (SEQ ID NO 14)) peptide. In FIG. 14A or FIG. 14B, ldLIMP2 and DDQRLLL (SEQ ID NO 14) were incubated before (as shown in FIG. 14A) or together with (as shown in FIG. 14B) GCase and analyzed as in FIG. 8A-FIG. 8C.
Immunoprecipitation and Competition Studies: To further evaluate the interaction of ldLIMP-2, WT GCase, and the DSPIIV (SEQ ID NO 15) peptide, competitive immunoprecipitation experiments were conducted using increasing concentrations of the WT peptide in competition with GCase for binding (FIG. 8A). […]

DDQRLLL (GCase di-leucine sequence)
binding to ldLIMP2 (δmP), in words [1]: lack of binding; also recorded: little or no binding
competition of bound GCase off ldLIMP2, in words ([2]; GCase preincubated with ldLIMP2 1:1, then peptide 0 to 5× molar excess): did not compete GCase off of ldLIMP2
competition with GCase for ldLIMP2 binding, in words ([2]; ldLIMP2, peptide and GCase incubated together, up to 5× molar excess): did not complete with GCase; also recorded: does not compete with GCase
prevention of GCase binding to ldLIMP2, in words ([2]; peptide preincubated with ldLIMP2 before GCase was added, up to 5× molar): did not complete with GCase; also recorded: does not compete with GCase
